Data published in publication PMC2765987 (2009).

B1: FLAG-tagged PP6R3 (full-length, residues 1-873) [human] / PP6 catalytic subunit, endogenous [human (endogenous in HEK293, HeLa, HepG2, Jurkat)] (parent complex)
chain 1: MFWKFDLHSSSHIDTLLEREDVTLKELMDEEDVLQECKAQNRKLIEFLLKAECLEDLVSFIIEEPPQDMDEKIRYKYPNISCELLTSDVSQMNDRLGEDESLLMKLYSFLLNDSPLNPLLASFFSKVLSILISRKPEQIVDFLKKKHDFVDLIIKHIGTSAIMDLLLRLLTCIEPPQPRQDVLNWLNEEKIIQRLVEIVHPSQEEDRHSNASQSLCEIVRLSRDQMLQIQNSTEPDPLLATLEKQEIIEQLLSNIFHKEKNESAIVSAIQILLTLLETRRPTFEGHIEICPPGMSHSACSVNKSVLEAIRGRLGSFHELLLEPPKKSVMKTTWGVLDPPVGNTRLNVIRLISSLLQTNTSSINGDLMELNSIGVILNMFFKYTWNNFLHTQVEICIALILASPFENTENATITDQDSTGDNLLLKHLFQKCQLIERILEAWEMNEKKQAEGGRRHGYMGHLTRIANCIVHSTDKGPNSALVQQLIKDLPDEVRERWETFCTSSLGETNKRNTVDLVTTCHIHSSSDDEIDFKETGFSQDSSLQQAFSDYQMQQMTSNFIDQFGFNDEKFADQDDIGNVSFDRVSDINFTLNTNESGNIALFEACCKERIQQFDDGGSDEEDIWEEKHIAFTPESQRRSSSGSTDSEESTDSEEEDGAKQDLFEPSSANTEDKMEVDLSEPPNWSANFDVPMETTHGAPLDSVGSDVWSTEEPMPTKETGWASFSEFTSSLSTKDSLRSNSPVEMETSTEPMDPLTPSAAALAVQPEAAGSVAMEASSDGEEDAESTDKVTETVMNGGMKETLSLTVDAKTETAVFKSEEGKLSTSQDAACKDAEECPETAEAKCAAPRPPSSSPEQRTGQPSAPGDTSVNGPV
chain 2: MAPLDLDKYVEIARLCKYLPENDLKRLCDYVCDLLLEESNVQPVSTPVTVCGDIHGQFYDLCELFRTGGQVPDTNYIFMGDFVDRGYYSLETFTYLLALKAKWPDRITLLRGNHESRQITQVYGFYDECQTKYGNANAWRYCTKVFDMLTVAALIDEQILCVHGGLSPDIKTLDQIRTIERNQEIPHKGAFCDLVWSDPEDVDTWAISPRGAGWLFGAKVTNEFVHINNLKLICRAHQLVHEGYKFMFDEKLVTVWSAPNYCYRCGNIASIMVFKDVNTREPKLFRAVPDSERVIPPRTTTPYFL

Variants of: B1
Test: co-immunoprecipitation (anti-FLAG) with quantitative fluorescent immunoblotting; expressed in HEK293 cells; endogenous PP6c; 3 independent experiments; parent: 100; read off a plot

percent of parent | Variant
~75 PP6c / FLAG (wild type = 100) | chain 1 E204K, chain 1 E205K
~91 PP6c / FLAG (wild type = 100) | chain 1 D113R
~64 PP6c / FLAG (wild type = 100) | chain 1 E259K, chain 1 E262K
